Patent US20180208648A1 (SCHOLAR ROCK, published 2018)

Columns and labels:
human proGDF11 [1] = target: T1, human proGDF11 (human, UniProt O95390 25-407, biotinylated (NHS-PEG4-Biotin), site not stated); assay: cell-based or functional assay
T1 sequence: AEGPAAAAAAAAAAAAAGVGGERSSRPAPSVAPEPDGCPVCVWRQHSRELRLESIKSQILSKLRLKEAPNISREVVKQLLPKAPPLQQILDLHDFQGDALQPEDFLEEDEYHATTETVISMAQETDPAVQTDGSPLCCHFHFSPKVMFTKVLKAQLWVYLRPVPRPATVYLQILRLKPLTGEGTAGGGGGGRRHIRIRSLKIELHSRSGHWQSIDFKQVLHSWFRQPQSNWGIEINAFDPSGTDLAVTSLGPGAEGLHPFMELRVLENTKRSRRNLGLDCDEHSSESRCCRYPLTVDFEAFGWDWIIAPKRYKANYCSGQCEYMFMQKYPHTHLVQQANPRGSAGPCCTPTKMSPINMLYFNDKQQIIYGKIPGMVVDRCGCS

human latent GDF11 = target: T2, human latent GDF11 (human, UniProt O95390 25-407, biotinylated, site not stated); assay: BLI (ForteBio Octet)
T2 construct: also called hu latent GDF11
T2 sequence: T1 sequence

human proGDF11 [2] = target: T1, human proGDF11; assay: BLI (ForteBio Octet)
human proGDF11 [3] = target: T1, human proGDF11; assay: cell-based or functional assay; remark: listed apart in the source
murine proGDF11 [4] = target: T3, murine proGDF11 (mouse, UniProt Q9Z1W4 25-405, biotinylated, site not stated); assay: cell-based or functional assay
T3 sequence: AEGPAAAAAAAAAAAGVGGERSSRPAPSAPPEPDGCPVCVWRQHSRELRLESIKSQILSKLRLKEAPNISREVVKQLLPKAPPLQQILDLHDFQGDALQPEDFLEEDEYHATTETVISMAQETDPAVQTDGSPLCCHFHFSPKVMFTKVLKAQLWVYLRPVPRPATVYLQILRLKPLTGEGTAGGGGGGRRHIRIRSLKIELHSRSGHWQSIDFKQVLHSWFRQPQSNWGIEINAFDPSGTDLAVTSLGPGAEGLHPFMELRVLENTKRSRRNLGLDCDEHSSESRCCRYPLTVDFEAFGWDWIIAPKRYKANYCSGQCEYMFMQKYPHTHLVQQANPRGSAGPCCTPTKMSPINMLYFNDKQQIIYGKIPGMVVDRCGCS

human proGDF11 [5] = target: T1, human proGDF11; assay: cell-based or functional assay; remark: listed apart in the source
human proActivin A = target: T4, human proActivin A (human, UniProt P08476 21-426, biotinylated (immobilized on streptavidin biosensors), site not stated); assay: BLI (ForteBio Octet QKe), antigen on streptavidin biosensor, antibody in solution
T4 construct: also called human Activin A; Inhibin-beta A pro-protein
T4 sequence: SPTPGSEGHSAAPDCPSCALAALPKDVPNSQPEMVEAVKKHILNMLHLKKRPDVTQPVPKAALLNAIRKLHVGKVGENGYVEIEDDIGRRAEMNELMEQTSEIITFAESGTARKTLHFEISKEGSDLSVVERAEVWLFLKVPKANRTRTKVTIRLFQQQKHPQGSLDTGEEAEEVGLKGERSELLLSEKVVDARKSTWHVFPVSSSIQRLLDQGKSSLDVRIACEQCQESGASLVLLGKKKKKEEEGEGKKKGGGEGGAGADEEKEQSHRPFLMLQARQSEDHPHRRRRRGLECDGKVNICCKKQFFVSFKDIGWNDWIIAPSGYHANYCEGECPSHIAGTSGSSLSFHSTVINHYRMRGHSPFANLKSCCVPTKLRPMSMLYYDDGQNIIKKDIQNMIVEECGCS

murine proGDF11 [6] = target: T3, murine proGDF11; assay: BLI (ForteBio Octet)
human proGDF11 ARM8 = target: T5, human proGDF11 ARM8 (human, biotinylated, site not stated); assay: ELISA, biotinylated antigen on neutravidin plate
T5 construct: GDF11 having the GDF8 arm domain
T5 chain: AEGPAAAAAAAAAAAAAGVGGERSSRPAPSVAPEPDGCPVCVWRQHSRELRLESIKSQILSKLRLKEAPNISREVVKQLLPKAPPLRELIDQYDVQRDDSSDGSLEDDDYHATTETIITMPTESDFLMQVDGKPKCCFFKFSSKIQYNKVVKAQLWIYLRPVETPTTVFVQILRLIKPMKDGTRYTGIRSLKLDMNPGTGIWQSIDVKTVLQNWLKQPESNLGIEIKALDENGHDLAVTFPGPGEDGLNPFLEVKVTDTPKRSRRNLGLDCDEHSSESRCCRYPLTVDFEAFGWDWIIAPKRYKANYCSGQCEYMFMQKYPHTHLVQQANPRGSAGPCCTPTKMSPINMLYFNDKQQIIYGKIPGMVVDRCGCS
Text: (§1) Candidate clones were converted to human IgG1 format. Full-length IgG antibodies were further characterized by ELISA for binding to the human and murine pro- and latent-forms of myostatin and GDF11. Antibodies were also screened for binding to the Myostatin prodomain (SEQ ID NO: 85), proTGFDβ1 (human and murine), the mature growth factor of Myostatin (SEQ ID NO: 89), the GDF11 mature growth factor (SEQ ID NO: 90), and proActivin A (SEQ ID NO: 84). Chimeric constructs which swapped portions of the prodomains of Myostatin and GDF11 were designed and produced. For example proGDF11 arm8 (SEQ ID NO: 112) refers to GDF11 having the GDF8 arm domain, and prodomain GDF11 arm8 (SEQ ID NO: 114) refers to the GDF11 prodomain having the GDF8 arm domain. These chimeric proteins were assayed for interaction with screening antibodies by ELISA and allowed for the assessment of binding of antibodies to the ARM or straight jacket portions of the GDF11 prodomain complex. Antibodies were selected based on their cross-reactivity with pro- and latent human and murine GDF11, with no interactions with GDF8, Activin, or TGFβ proteins. Activin A is a homodimer of inhibin-beta A subunits. For example, Inhibin-beta A can heterodimerize with other proteins to produce different Activin proteins.
(§2) Enzyme-linked immunosorbent assay (ELISA) analysis is carried out to assess antibody binding. 96-well ELISA assay plates are coated with neutravidin, a deglycosylated version of streptavidin with a more neutral pH. Target proteins are expressed with or without histidine (His) tags and subjected to biotinylation. Biotinylated target proteins are incubated with neutravidin-coated ELISA assay plates for two hours at room temperature and unbound proteins are removed by washing three times with wash buffer (either 25 mM Tris, 150 mM NaCl, 0.05% TWEEN®-20, or 20 mM Hepes pH 7.5, 500 mM NaCl, 0.05% TWEEN®-20). Primary antibodies being tested are added to each well and allowed to incubate at room temperature for 1 hour or more. Unbound antibody is then removed by washing three times with wash buffer. Secondary antibodies capable of binding to primary antibodies being tested and conjugated with detectable labels are then incubated in each well for 30 minutes at room temperature. Unbound secondary antibodies are removed by washing three times with wash buffer.

human proGDF8 = target: T6, human proGDF8 (human, UniProt O14793 24-375, biotinylated, site not stated); assay: ELISA, biotinylated antigen on neutravidin plate
T6 construct: also called hu proGDF8; human proMyostatin
T6 sequence: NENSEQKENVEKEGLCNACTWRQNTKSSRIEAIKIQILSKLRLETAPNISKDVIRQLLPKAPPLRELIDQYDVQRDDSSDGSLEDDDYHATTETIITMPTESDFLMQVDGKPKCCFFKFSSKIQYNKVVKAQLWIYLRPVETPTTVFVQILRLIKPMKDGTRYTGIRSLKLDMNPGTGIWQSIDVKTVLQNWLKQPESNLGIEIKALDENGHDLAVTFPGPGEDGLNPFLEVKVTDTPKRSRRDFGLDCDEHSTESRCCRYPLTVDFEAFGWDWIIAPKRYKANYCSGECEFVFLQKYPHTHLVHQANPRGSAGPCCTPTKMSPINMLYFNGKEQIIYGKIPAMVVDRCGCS
Text: as §1, §2

[7] = target: T7, human prodomain GDF11 ARM8 (human, biotinylated, site not stated); assay: ELISA, biotinylated antigen on neutravidin plate
T7 construct: GDF11 prodomain having the GDF8 arm domain; also called human GDF11 ARM8 prodomain
T7 chain: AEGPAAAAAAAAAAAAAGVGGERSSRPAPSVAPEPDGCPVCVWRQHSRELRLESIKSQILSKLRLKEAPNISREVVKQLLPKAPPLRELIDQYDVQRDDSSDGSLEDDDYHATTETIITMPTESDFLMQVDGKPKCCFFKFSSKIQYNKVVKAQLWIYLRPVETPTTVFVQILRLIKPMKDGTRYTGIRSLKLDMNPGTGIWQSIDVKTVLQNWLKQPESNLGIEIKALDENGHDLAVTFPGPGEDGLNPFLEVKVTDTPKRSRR
Text: as §1, §2

human mature GDF11 = target: T8, human mature GDF11 (human, UniProt O95390 299-407, biotinylated, site not stated); assay: ELISA, biotinylated antigen on neutravidin plate
T8 construct: Growth factor domain; also called GDF11 mature growth factor
T8 sequence: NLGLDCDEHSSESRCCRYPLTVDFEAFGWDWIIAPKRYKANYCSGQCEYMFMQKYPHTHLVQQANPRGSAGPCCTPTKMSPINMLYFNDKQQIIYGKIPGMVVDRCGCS
Text: as §1, §2

B1: GDF11 Inh-5 (antibody, V domains shown)
VH: EVQLVQSGAEVKKPGASVKVSCKASGYTFTGYYIYWVRQAPGQGLEWMGWIRPNSGDTNYAQKFQDRLTMTRDTSISTAYMELSRLRSDDTAVYYCAGNYDILTGYQAPLGYWGQGALVTVSS
VL: DIVLTQSPATLSVSPGERATLSCRASQRVISNYLAWYQQKPGQAPRLLIYGASSRATGIPDRFSGSGSGTDFTLSISRLEPEDFAVYYCQHYGPFGGGTKVEIKR
notes: also called Clone GDF11 Inh-5
EC50, proGDF11 activation assay at 50 nM proGDF11 (human proGDF11 [1]): 30.1 nM
Kd (human latent GDF11): < 0.001 nM
Kd (human proGDF11 [2]): < 0.001 nM
Human proGDF11 % Inhibition (proGDF11 activation assay, CAGA luciferase reporter in 293T cells) (human proGDF11 [3]): 96%
Murine proGDF11 % inhibition (proGDF11 activation assay, CAGA luciferase reporter in 293T cells) (murine proGDF11 [4]): 90%
EC50 (inhibition of proGDF11 activation; CAGA luciferase reporter in 293T cells after overnight proteolysis) (human proGDF11 [5]): ~30.3 nM
binding result (human proActivin A): no binding (tested: 50 µg/mL)

B2: GDF11 Inh-3 (antibody, V domains shown)
VH: QVQLVQSGGGVVQPGRSLRLSCAASGFTFSSYAMHWVRQAPGKGLEWVAVISYDGSNEYYADSVKGRFTISRDNSKNTLYLQMNSLRAEDTAVYYCAKDFWSGYPQYNWFDPWGQGTLVTVSS
VL: EIVMTQSPATLSLSAGERATLSCRASQSVSNYLAWYQQKPGQAPRLLIYDASNRATGIPARFSGSGSGTDFTLTISSLEPEDFAVYYCQQYGSAPLTFGGGTNVEIKR
notes: also called Clone GDF11 Inh-3
Kd (human proGDF11 [2]): 0.71 nM
Kd (murine proGDF11 [6]): 0.937 nM
Human proGDF11 % Inhibition (proGDF11 activation assay, CAGA luciferase reporter in 293T cells) (human proGDF11 [3]): 87%
Murine proGDF11 % inhibition (proGDF11 activation assay, CAGA luciferase reporter in 293T cells) (murine proGDF11 [4]): 88%
binding result (human proGDF11 ARM8): no binding
binding result (human proGDF8): no binding
binding result [7]: no binding
binding result (human mature GDF11): no binding

B3: GDF11 Inh-6 (antibody, V domains shown)
VH: QVQLQESGPGLVKPSETLSLTCTVSGGSISSSSYYWGWVRQPPGKGLEWIGEIYHSGSTNYNPSLKSRVTISVDTSKNQFSLKLSSVTAADTAVYYCARVGTSWEYYFDYWGQGTLVTVSS
VL: DIQMTQSPASLSASVGDRVTITCRTSQHIINYLNWYQQRPGKAPNLLIYKASTLQSGVPSRFSGSGSGTHFTLTISSLQPEDFATYYCQQYQSYPITFGQGTRLEIKR
notes: also called Clone GDF11 Inh-6
Kd (human proGDF11 [2]): 0.75 nM
Human proGDF11 % Inhibition (proGDF11 activation assay, CAGA luciferase reporter in 293T cells) (human proGDF11 [3]): 77%
Murine proGDF11 % inhibition (proGDF11 activation assay, CAGA luciferase reporter in 293T cells) (murine proGDF11 [4]): 63%
binding result (human proGDF8): no binding
binding result [7]: no binding

B4: GDF11 Inh-7 (antibody, V domains shown)
VH: EVQLVQSGGGLVQPGGSLRLSCAASGFTFSSYSMNWVRQAPGKGLEWVSYISSSSSTIYYADSVKGRFTISRDNAKNSLYLQMNSLRAEDTAVYYCARDGIYYDSSGYYDLFDYWGQGTLVTVSS
VL: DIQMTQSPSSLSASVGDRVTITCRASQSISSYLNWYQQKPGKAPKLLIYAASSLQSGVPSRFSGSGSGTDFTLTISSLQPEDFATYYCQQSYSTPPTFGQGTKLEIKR
notes: also called Clone GDF11 Inh-7
Kd (human proGDF11 [2]): 2.12 nM
Human proGDF11 % Inhibition (proGDF11 activation assay, CAGA luciferase reporter in 293T cells) (human proGDF11 [3]): 74%
Murine proGDF11 % inhibition (proGDF11 activation assay, CAGA luciferase reporter in 293T cells) (murine proGDF11 [4]): 53%
binding result (human mature GDF11): no binding

B5: GDF11 Inh-1 (antibody, V domains shown)
VH: EVQLLESRGGLVQPGRSLRLSCAASGFTFDDYAMHWVRQAPGKGLEWVSGISWNSGSIGYADSVKGRFTISRDNTKNSLYLQMNSLRAEDTGVYYCAREVTGDLDYWGQGTLVTVSS
VL: EIVMTQSPGTLSLSPGERATLSCRASQFLSSTYLAWYQQRPGQAPRLLIYSASNRATGVPDRFSGSGSGTDFTLKISRVEAEDVGVYYCMQATHWPYTFGQGTKLEIKR
notes: also called Clone GDF11 Inh-1
EC50, proGDF11 activation assay at 50 nM proGDF11 (human proGDF11 [1]): 87.1 nM
Kd (human proGDF11 [2]): 0.49 nM
Kd (murine proGDF11 [6]): 0.848 nM
Human proGDF11 % Inhibition (proGDF11 activation assay, CAGA luciferase reporter in 293T cells) (human proGDF11 [3]): 91%
Murine proGDF11 % inhibition (proGDF11 activation assay, CAGA luciferase reporter in 293T cells) (murine proGDF11 [4]): 80%
binding result (human mature GDF11): no binding
